Test results from article PMC5366329.

Key:
[1] = target: N-terminal 6xHis-tagged HsCPAP^897−1338 (human) (UniProt Q9HC77); assay: SEC + other: negative-stain electron microscopy (single particle, 3D map); SEC (Superdex 200 10/300) peak fraction at an apparent MW of ~208 kDa, buffer H-300 (300 mM NaCl), 4°C; barrel-like particles, 23 Å map; putative tetramer (dimer of dimers)
[2] = target: N-terminal 6xHis-tagged HsCPAP^897−1338 (human) (UniProt Q9HC77); assay: SEC + other: negative-stain electron microscopy (single particle, 3D map); SEC (Superdex 200 10/300) fraction at an apparent MW of ~108 kDa, buffer H-300 (300 mM NaCl), 4°C; toroidal particles, 20 Å map from 4,587 particles; monomers to putative dimer

N-terminal 6xHis-tagged HsCPAP^897−1338 (from UniProt Q9HC77 897-1338) (domain or fragment)
stoichiometry N [1]: 4 | stoichiometry N [2]: 2
